Data taken from patent publication US20210292396A1.

Columns and labels:
Assay in all cases: cell-based or functional assay
[1] = molecular target: Env of HIV isolate 6101.10 (clade B) (HIV)
[2] = molecular target: Env of HIV isolate BR025.9 (clade C) (HIV)
[3] = molecular target: Env of HIV isolate CH038.12 (clade BC) (HIV)
[4] = molecular target: Env of HIV isolate BG1168.01 (clade B) (HIV)
[5] = molecular target: Env of HIV isolate TH966.8 (clade AE) (HIV)
[6] = molecular target: HIV Env of isolate ZM214.15 (HIV)
[7] = molecular target: HIV Env of isolate 231965.c01 (HIV)
[8] = molecular target: HIV Env of isolate SO18.18 (HIV)
[9] = molecular target: HIV Env of isolate DU422.01 (HIV)
[10] = molecular target: Env of HIV isolate 00836-2.5 (clade C) (HIV)
[11] = molecular target: Env of HIV isolate 3637.v5.c3 (clade C) (HIV)
[12] = molecular target: Env of HIV isolate A03349M1.vrc4a (clade D) (HIV)
[13] = molecular target: Env of HIV isolate TZA125.17 (clade C) (HIV)
[14] = molecular target: Env of HIV isolate QH0692.42 (clade B) (HIV)
[15] = molecular target: HIV Env of isolate ZM53.12 (HIV)
[16] = molecular target: Env of HIV isolate 6838.v1.c35 (clade C) (HIV)
[17] = molecular target: HIV Env of isolate 3873.v1.c24 (HIV)
[18] = molecular target: Env of HIV isolate 0439.v5.c1 (clade A) (HIV)
[19] = molecular target: Env of HIV isolate 25710-2.43 (clade C) (HIV)
[20] = molecular target: Env of HIV isolate CAP45.G3 (clade C) (HIV)
[21] = molecular target: HIV Env of isolate 426c (HIV)
[22] = molecular target: Env of HIV isolate CM244.ec1 (clade AE) (HIV)
[23] = molecular target: Env of HIV isolate BaL.26 (clade B) (HIV)
[24] = molecular target: Env of HIV isolate BJOX025000.01.1 (clade AE) (HIV)
[25] = molecular target: HIV Env of isolate 191821.E6.1 (HIV)
[26] = molecular target: Env of HIV isolate CH119.10 (clade BC) (HIV)
[27] = molecular target: Env of HIV isolate CNE14 (clade B) (HIV)
[28] = molecular target: HIV Env of isolate MW965.26 (HIV)
[29] = molecular target: Env of HIV isolate QH0515.01 (clade B) (HIV)
[30] = molecular target: Env of HIV isolate CH181.12 (clade BC) (HIV)
[31] = molecular target: Env of HIV isolate 3589.v1.c4 (clade AC) (HIV)
[32] = molecular target: Env of HIV isolate 25711-2.4 (clade C) (HIV)
[33] = molecular target: Env of HIV isolate ZA012.29 (clade C) (HIV)
[34] = molecular target: HIV Env of isolate 247-23 (HIV)
[35] = molecular target: HIV Env of isolate 001428-2.42 (HIV)
[36] = molecular target: Env of HIV isolate UG021.16 (clade D) (HIV)
[37] = molecular target: Env of HIV isolate 45_01dG5 (clade B) (HIV)
[38] = molecular target: Env of HIV isolate CNE53 (clade C in Table 7) (HIV)
[39] = molecular target: Env of HIV isolate CNE31 (clade C) (HIV)
[40] = molecular target: Env of HIV isolate ZM53.12 (clade C) (HIV)
[41] = molecular target: Env of HIV isolate DJ263.8 (clade AG) (HIV)
[42] = molecular target: Env of HIV isolate KER2008.12 (clade A) (HIV)
[43] = molecular target: Env of HIV isolate CNE59 (clade AE) (HIV)
[44] = molecular target: Env of HIV isolate BG505.W6M.C2 (clade A) (HIV)
[45] = molecular target: Env of HIV isolate 3365.v2.c20 (clade A) (HIV)
[46] = molecular target: Env of HIV isolate CNE40 (clade BC) (HIV)
[47] = molecular target: Env of HIV isolate 242-14 (clade AG) (HIV)
[48] = molecular target: Env of HIV isolate 16055-2.3 (clade C) (HIV)
[49] = molecular target: Env of HIV isolate 6535.3 (clade B) (HIV)
[50] = molecular target: Env of HIV isolate T250-4 (clade AG) (HIV)

B1: ePGT121.15 (ePGT121.15.H6 VH and ePGT121.15.L1 VL) (antibody, V domains shown)
VH: QMQLQESGPGLVKPGETLSLTCSVSGASISSSYWSWLRETPGKGLEWIGYTHHSGDTNYAPSLKSRVHLGLHPSKNQVSLSLTSVTAADTAVYYCARTLHGRRIYGVVAFNEFFTYFYWEVWGKGTQVTVSS
VL: SDISVAPGETVRISCGGESIGSRAVQWYQHRAGQAPKLIIYNNQDRPPGIPERFSGSPDIDFGTTATLTITNVEAGDEATYYCHIWDSRRPTNWVFGGGTTLTVL
**Q.** What does the source list for B1?
**A.** IC50, pseudovirus neutralization [1]: 0.002 µg/mL; IC50, pseudovirus neutralization [2]: 0.002 µg/mL; IC50, pseudovirus neutralization [3]: 0.001 µg/mL; IC50, pseudovirus neutralization [4]: > 50 µg/mL; IC50, pseudovirus neutralization [5]: > 50 µg/mL; IC80, pseudovirus neutralization [6]: 0.126 µg/mL; IC80, pseudovirus neutralization [7]: > 50 µg/mL; IC80, pseudovirus neutralization [8]: 0.009 µg/mL; IC80, pseudovirus neutralization [9]: 0.022 µg/mL; IC50, pseudovirus neutralization [10]: 2.25 µg/mL; IC50, pseudovirus neutralization [11]: > 50 µg/mL; IC50, pseudovirus neutralization [12]: 0.006 µg/mL; IC50, pseudovirus neutralization [13]: 0.07 µg/mL; IC50, pseudovirus neutralization [14]: 0.015 µg/mL; IC80, pseudovirus neutralization [15]: 0.062 µg/mL; IC50, pseudovirus neutralization [16]: 0.234 µg/mL; IC80, pseudovirus neutralization [17]: 0.011 µg/mL; IC50, pseudovirus neutralization [18]: 4.72 µg/mL; IC50, pseudovirus neutralization [19]: 0.006 µg/mL; IC50, pseudovirus neutralization [20]: 2.25 µg/mL; IC80, pseudovirus neutralization [21]: 1.38 µg/mL; IC50, pseudovirus neutralization [22]: 7.02 µg/mL; IC50, pseudovirus neutralization [23]: 0.003 µg/mL; IC50, pseudovirus neutralization [24]: > 50 µg/mL; IC80, pseudovirus neutralization [25]: 3 µg/mL; IC50, pseudovirus neutralization [26]: 0.005 µg/mL; IC50, pseudovirus neutralization [27]: 0.002 µg/mL; IC80, pseudovirus neutralization [28]: 0.009 µg/mL; IC50, pseudovirus neutralization [29]: 0.014 µg/mL; IC50, pseudovirus neutralization [30]: 0.003 µg/mL; IC50, pseudovirus neutralization [31]: 0.229 µg/mL; IC50, pseudovirus neutralization [32]: 0.004 µg/mL; IC50, pseudovirus neutralization [33]: 0.004 µg/mL; IC80, pseudovirus neutralization [34]: > 50 µg/mL; IC80, pseudovirus neutralization [35]: 0.005 µg/mL; IC50, pseudovirus neutralization [36]: 0.006 µg/mL; IC50, pseudovirus neutralization [37]: 0.003 µg/mL; IC50, pseudovirus neutralization [38]: 0.007 µg/mL; IC50, pseudovirus neutralization [39]: 0.042 µg/mL; IC50, pseudovirus neutralization [40]: 0.008 µg/mL; IC50, pseudovirus neutralization [41]: 0.013 µg/mL; IC50, pseudovirus neutralization [42]: 0.01 µg/mL; IC50, pseudovirus neutralization [43]: > 50 µg/mL; IC50, pseudovirus neutralization [44]: 0.066 µg/mL; IC50, pseudovirus neutralization [45]: 0.006 µg/mL; IC50, pseudovirus neutralization [46]: 0.028 µg/mL; IC50, pseudovirus neutralization [47]: 42.8 µg/mL; IC50, pseudovirus neutralization [48]: 0.029 µg/mL; IC50, pseudovirus neutralization [49]: 0.0007 µg/mL; IC50, pseudovirus neutralization [50]: 0.002 µg/mL
